# Test results published in patent US20240209113A1 (BEIGENE SWITZERLAND, published 2024).
# Positions count from the first letter of the chain named. Where “and” joins values, the source holds several entries; their conditions need not be identical. Equal values may be shown once.
# T1: DS50b (human GPC3 AA 511-560) (human, constructed to the N terminal of biotin, generating DS50b-KLH (so in the source))
# T1 construct: also called DS50b-KLH
# T1 peptide: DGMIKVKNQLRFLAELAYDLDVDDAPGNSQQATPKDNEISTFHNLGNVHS
# T2: FcγRIIAH131 (UniProt P12318 36-218, limits assumed)
# T2 sequence (looked up): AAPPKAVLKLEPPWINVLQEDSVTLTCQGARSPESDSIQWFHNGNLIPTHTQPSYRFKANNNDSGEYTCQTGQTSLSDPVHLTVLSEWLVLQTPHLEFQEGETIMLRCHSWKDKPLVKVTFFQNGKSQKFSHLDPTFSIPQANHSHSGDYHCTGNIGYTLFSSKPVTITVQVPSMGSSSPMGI
# T3: FcγRIIB (UniProt P31994 43-217, limits assumed)
# T3 sequence (looked up): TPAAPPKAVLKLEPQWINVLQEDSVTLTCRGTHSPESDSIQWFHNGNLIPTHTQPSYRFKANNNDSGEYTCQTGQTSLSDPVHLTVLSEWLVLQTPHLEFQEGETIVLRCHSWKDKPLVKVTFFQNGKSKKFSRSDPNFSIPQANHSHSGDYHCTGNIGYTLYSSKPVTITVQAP
# T4: FcγRIIAR131 (UniProt P12318 36-218, limits assumed)
# T4 sequence (looked up): T2 sequence (looked up) with H132R
# T5: GK28b (human GPC3 AA 537-563) (human, constructed to the N terminal of biotin, generating GK28b-KLH (so in the source))
# T5 construct: also called GK28b-KLH
# T5 peptide: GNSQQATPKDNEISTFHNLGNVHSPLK
# T6: Monkey CD137 (recombinant protein, Example 11) (cynomolgus monkey, UniProt Q07011 24-186 (human entry), limits assumed)
# T6 construct: also called cynomolgus monkey CD137
# T6 chain: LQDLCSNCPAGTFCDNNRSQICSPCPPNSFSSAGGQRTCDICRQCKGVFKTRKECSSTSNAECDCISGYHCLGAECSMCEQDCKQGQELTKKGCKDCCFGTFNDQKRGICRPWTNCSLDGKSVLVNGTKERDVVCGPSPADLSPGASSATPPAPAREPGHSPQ
# T7: Mouse CD137 (mouse, UniProt P20334 24-187, limits assumed)
# T7 construct: also called murine CD137
# T7 sequence (looked up): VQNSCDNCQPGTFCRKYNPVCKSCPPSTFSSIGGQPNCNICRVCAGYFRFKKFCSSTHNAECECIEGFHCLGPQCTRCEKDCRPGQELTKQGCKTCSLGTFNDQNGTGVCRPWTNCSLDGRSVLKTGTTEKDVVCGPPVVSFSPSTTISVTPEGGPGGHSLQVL
# B1: BE-830 (bispecific antibody, human IgG1, kappa)
# heavy: QVQLVQSGAEVKKPGASVKVSCKASGYTFTDYEMHWVRQAPGQGLEWMGALDPKTGDTAYSQKFKGRVTLTADKSTSTAYMELSSLTSEDTAVYYCTRFYSYTYWGQGTLVTVSSASTKGPSVFPLAPSSKSTSGGTAALGCLVKDYFPEPVTVSWNSGALTSGVHTFPAVLQSSGLYSLSSVVTVPSSSLGTQTYICNVNHKPSNTKVDKKVEPKSCDKTHTCPPCPAPPAAGPSVFLFPPKPKDTLMISRTPEVTCVVVDVSHEDPEVKFNWYVDGVEVHNAKTKPREEQYNSTYRVVSVLTVLHQDWLNGKEYKCKVSNKALAAPIEKTISKAKGQPREPQVYTLPPSREEMTKNQVSLTCLVKGFYPSDIAVEWESNGQPENNYKTTPPVLDSDGSFFLYSKLTVDKSRWQQGNVFSCSVMHEALHNHYTQKSLSLSPGKGGGGSEVQLLESGGGLVQPGGSLRLSCAASGFTVSAEDVGWVRQAPGKGLEWVSAILDKGGSTYYAESVKGRFTISRDNAKNTLYLQMSSLRAEDTAVYYCARIVYHAGGGVTFDTRGQGTQVTVSS
# light: DVVMTQSPLSLPVTPGEPASISCRSSQSLVHSNRNTYLHWYLQKPGQSPQLLIYKVSNRFSGVPDRFSGSGSGTDFTLKISRVEAEDVGVYYCSQNTHVPPTFGQGTKLEIKRTVAAPSVFIFPPSDEQLKSGTASVVCLLNNFYPREAKVQWKVDNALQSGNSQESVTEQDSKDSTYSLSSTLTLSKADYEKHKVYACEVTHQGLSSPVTKSFNRGEC
# notes: also called GPC3×CD137 multispecific antibody BE-830; GPC3 x CD137 (BE-830)
# Columns and labels:
# human GPC3 on cells [1] = target: T8, human GPC3 on cells (human, UniProt P51654 25-559); test: cell-based or functional assay
# [2] = target: T9, full-length human CD137 on cells (human, UniProt Q07011 24-255); test: cell-based or functional assay
# T9 sequence (Q07011 24-255 limits assumed): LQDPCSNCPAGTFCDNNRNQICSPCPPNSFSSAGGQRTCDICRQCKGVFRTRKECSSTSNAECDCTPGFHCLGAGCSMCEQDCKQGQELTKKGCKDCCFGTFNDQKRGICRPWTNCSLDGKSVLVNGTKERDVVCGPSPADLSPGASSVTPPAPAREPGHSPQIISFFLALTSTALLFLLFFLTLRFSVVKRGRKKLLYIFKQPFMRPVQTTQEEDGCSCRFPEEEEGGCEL
# [3] = target: T1, DS50b (human GPC3 AA 511-560); test: ELISA on DS50b-KLH [B]
# human GPC3 on cells [4] = target: T8, human GPC3 on cells; test: FACS on Hepa1-6T-OS8-GPC3 cells
# huGPC3-His = target: T10, huGPC3-His (human, UniProt P51654 25-559); test: ELISA on huGPC3-His [C]
# T10 construct: not shown: His tag
# FcγRI = FcγRI (UniProt P12314 16-288, limits assumed); test: ELISA
# FcγRI, sequence (P12314 16-288 limits assumed): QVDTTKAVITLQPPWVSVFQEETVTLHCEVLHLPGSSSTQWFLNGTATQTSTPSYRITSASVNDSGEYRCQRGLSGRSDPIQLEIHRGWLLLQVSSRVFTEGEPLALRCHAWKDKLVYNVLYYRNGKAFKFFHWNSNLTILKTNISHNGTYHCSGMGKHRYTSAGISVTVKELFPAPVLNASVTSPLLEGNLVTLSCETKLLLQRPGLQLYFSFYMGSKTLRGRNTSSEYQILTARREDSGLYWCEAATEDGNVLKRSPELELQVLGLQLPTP
# FcγRIIAH131 = target: T2, FcγRIIAH131; test: ELISA
# FcγRIIIAF158 = FcγRIIIAF158 (UniProt P08637 17-208, limits assumed); test: ELISA
# FcγRIIIAF158, sequence (P08637 17-208 limits assumed): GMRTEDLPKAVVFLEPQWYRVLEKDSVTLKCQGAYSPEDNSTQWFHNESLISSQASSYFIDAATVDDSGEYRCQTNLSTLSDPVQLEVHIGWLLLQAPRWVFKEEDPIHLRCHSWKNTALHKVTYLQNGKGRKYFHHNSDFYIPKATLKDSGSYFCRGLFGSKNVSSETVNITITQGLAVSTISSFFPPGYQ
# FcγRIIIAV158 = FcγRIIIAV158 (UniProt P08637 17-208, limits assumed); test: ELISA
# FcγRIIIAV158, sequence (P08637 17-208 F176V limits assumed): as the sequence (P08637 17-208 limits assumed) above, with F160V counted along it
# FcγRIIIB = FcγRIIIB (UniProt O75015 17-200, limits assumed); test: ELISA
# FcγRIIIB, sequence (O75015 17-200 limits assumed): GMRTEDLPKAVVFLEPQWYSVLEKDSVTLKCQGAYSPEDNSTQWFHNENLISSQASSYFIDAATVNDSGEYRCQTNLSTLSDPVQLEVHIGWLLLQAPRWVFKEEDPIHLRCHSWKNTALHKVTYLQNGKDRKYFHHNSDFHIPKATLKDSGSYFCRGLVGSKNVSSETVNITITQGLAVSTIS
# FcγRIIB = target: T3, FcγRIIB; test: ELISA
# FcγRIIAR131 = target: T4, FcγRIIAR131; test: ELISA
# C1q = C1q (UniProt P02745 23-245; P02746 28-253; P02747 29-245); test: C1q binding ELISA
# C1q, sequence (P02745 23-245, chain 1 of 3): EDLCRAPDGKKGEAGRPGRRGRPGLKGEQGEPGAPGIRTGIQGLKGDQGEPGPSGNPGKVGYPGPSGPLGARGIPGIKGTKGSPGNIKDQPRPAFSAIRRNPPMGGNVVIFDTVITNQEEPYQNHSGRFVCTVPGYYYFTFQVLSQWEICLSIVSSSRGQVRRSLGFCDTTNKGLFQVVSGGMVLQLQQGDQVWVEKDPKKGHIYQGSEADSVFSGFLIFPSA
# C1q, sequence (P02746 28-253, chain 2 of 3): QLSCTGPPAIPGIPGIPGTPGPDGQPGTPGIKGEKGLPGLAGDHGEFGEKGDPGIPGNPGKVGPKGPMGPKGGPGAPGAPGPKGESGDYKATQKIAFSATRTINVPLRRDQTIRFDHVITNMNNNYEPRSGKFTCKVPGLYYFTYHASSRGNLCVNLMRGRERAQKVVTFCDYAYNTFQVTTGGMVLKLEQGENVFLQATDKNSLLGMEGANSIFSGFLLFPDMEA
# C1q, sequence (P02747 29-245, chain 3 of 3): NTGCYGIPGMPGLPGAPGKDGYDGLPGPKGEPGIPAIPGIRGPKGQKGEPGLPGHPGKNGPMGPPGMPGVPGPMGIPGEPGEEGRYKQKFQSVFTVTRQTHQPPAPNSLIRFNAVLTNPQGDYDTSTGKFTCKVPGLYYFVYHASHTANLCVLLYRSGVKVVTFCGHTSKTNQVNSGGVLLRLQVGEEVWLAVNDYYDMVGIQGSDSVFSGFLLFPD
# [5] = target: T5, GK28b (human GPC3 AA 537-563); test: ELISA on GK28b-KLH [A]
# Monkey GPC3 = target: T11, Monkey GPC3 (cynomolgous monkey, UniProt A0A2K5VK50 24-553); test: SPR
# T11 construct: Bought protein; also called monkey GPC3 (Cat #GP3-C5225, Acrobiosystem)
# [6] = target: T12, Human GPC3 (recombinant protein, Example 11) (human, UniProt P51654 25-559, limits assumed); test: SPR
# [7] = target: T6, Monkey CD137 (recombinant protein, …); test: SPR
# [8] = target: T13, Human CD137 (recombinant protein, Example 11) (human, UniProt Q07011 24-186); test: SPR
# T13 sequence (Q07011 24-186 limits assumed): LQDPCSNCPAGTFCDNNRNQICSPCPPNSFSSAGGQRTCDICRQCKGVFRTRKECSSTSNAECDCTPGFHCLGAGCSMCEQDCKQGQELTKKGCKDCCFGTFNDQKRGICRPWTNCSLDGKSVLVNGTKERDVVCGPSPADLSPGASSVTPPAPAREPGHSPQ
# [9] = target: T9, full-length human CD137 on cells; test: FACS on HuT78/CD137 cells
# [10] = target: T12, Human GPC3 (recombinant protein, …); test: dual antigen binding ELISA with CD137 and GPC3 bound at the same time; which antigen is coated is not stated
# [11] = target: T13, Human CD137 (recombinant protein, …); test: as above
# [12] = target: human CD137 ECD mutant F36A (human, UniProt Q07011 24-186); test: ELISA on wild type and mutant CD137 proteins
# human CD137 ECD mutant F36A, sequence (Q07011 24-186 F36A limits assumed): as the sequence (Q07011 24-186 limits assumed) above, with F13A counted along it
# [13] = target: human CD137 ECD mutant P49A (human, UniProt Q07011 24-186); test: ELISA on wild type and mutant CD137 proteins
# human CD137 ECD mutant P49A, sequence (Q07011 24-186 P49A limits assumed): as the sequence (Q07011 24-186 limits assumed) above, with P26A counted along it
# [14] = target: human CD137 ECD mutant P47A (human, UniProt Q07011 24-186); test: ELISA on wild type and mutant CD137 proteins
# human CD137 ECD mutant P47A, sequence (Q07011 24-186 P47A limits assumed): as the sequence (Q07011 24-186 limits assumed) above, with P24A counted along it
# Mouse GPC3 = Mouse GPC3 (mouse, UniProt Q8CFZ4 25-558, limits assumed); test: SPR
# Mouse GPC3, sequence (Q8CFZ4 25-558 limits assumed): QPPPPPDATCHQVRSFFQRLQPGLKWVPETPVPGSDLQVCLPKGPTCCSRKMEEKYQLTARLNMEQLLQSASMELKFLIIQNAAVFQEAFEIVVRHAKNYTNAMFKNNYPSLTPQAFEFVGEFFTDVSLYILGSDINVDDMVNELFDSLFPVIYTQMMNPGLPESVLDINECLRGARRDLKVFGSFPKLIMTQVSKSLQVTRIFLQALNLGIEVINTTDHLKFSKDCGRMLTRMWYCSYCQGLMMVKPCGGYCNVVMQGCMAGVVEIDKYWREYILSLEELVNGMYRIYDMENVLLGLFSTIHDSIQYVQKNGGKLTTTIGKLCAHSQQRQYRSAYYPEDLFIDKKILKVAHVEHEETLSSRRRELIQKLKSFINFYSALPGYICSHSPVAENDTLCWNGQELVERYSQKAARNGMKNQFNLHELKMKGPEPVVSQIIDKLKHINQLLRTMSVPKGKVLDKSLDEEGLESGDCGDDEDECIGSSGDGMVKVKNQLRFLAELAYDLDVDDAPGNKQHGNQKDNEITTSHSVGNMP
# Mouse CD137 = target: T7, Mouse CD137; test: SPR
binder,measurement,setting,value
B1,"EC50, cell-based bioluminescent assay (NFκB luciferase in JK-NFκB-CD137 co-cultured with Hepa1-6T-OS8-GPC3)",human GPC3 on cells [1],0.149 µg/ml and 0.86 nM
same,"EC50, cell-based bioluminescent assay (NFκB luciferase in JK-NFκB-CD137 co-cultured with Hepa1-6T-OS8-GPC3)",[2],0.149 µg/ml and 0.86 nM
same,EC50 (read off the curve),[3],~0.009 µg/mL
same,EC50,human GPC3 on cells [4],1.11 µg/mL and 6.41 nM
same,EC50 (read off the curve),huGPC3-His,~0.04 µg/mL
same,binding result,FcγRI,no binding
same,binding result,FcγRIIAH131,no binding
same,binding result,FcγRIIIAF158,no binding
same,binding result,FcγRIIIAV158,no binding
same,binding result,FcγRIIIB,no binding
same,binding result,FcγRIIB,no binding
same,binding result,FcγRIIAR131,no binding
same,EC50 (read off the curve),C1q,~2 µg/mL
same,EC50 (read off the curve),[5],~0.008 µg/mL
same,Kd,Monkey GPC3,0.643 nM
same,koff,Monkey GPC3,0.000273 s⁻¹
same,kon,Monkey GPC3,425000 M⁻¹ s⁻¹
same,Kd,[6],0.559 nM
same,koff,[6],0.000312 s⁻¹
same,kon,[6],559000 M⁻¹ s⁻¹
same,Kd,[7],19.2 nM
same,koff,[7],0.00291 s⁻¹
same,kon,[7],152000 M⁻¹ s⁻¹
same,Kd,[8],40.1 nM
same,koff,[8],0.00484 s⁻¹
same,kon,[8],121000 M⁻¹ s⁻¹
same,EC50,[9],0.712 µg/mL and 4.09 nM
same,EC50 (read off the curve),[10],~0.07 µg/mL
same,EC50 (read off the curve),[11],~0.07 µg/mL
same,decrease of binding activity against wild type CD137,[12],> 75%
same,decrease of binding activity against wild type CD137,[13],> 75%
same,decrease of binding activity against wild type CD137,[14],> 75%
same,binding result,Mouse GPC3,no binding
same,binding result,Mouse CD137,no binding
